Data on three molecules can be found in patent US11111295B2, “Antibody for anti-claudin 18A2 and use thereof” (CAFA THERAPEUTICS LIMITED, priority 2016, dated 2021).

In general, EC50 refers to the concentration giving half of the maximal effect.

Assay [1] has as its target T1, human CLD18A2 (Homo sapiens, UniProt P56856).
T1 construct: expressed in transfected cells
T1 sequence (P56856 1-261 isoform P56856-2): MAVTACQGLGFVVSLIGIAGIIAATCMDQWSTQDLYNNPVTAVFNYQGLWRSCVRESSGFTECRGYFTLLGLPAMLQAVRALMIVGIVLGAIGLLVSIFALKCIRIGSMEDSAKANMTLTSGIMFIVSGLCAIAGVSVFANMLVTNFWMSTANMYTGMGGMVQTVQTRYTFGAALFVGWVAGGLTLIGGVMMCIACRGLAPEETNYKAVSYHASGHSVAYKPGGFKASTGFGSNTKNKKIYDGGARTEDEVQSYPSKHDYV
Description: Flow cytometry binding of hybridoma supernatants to HEK293 cells stably transfected with human CLD18A2. The conditions noted are these: hybridoma supernatant; most of subclones after two rounds of subcloning; HEK293 transfectants. The source says: Individual cells were screened for anti-CLD18A2 monoclonal antibody by flow cytometry, and HEK293 cells (HEK-CLD18A2) stably expressing human CLD18A2 were used for primary screening by flow cytometry using a Guava easyCyte™ HT System instrument. The binding of the antibody to human CLD18A1 and CLD18A2 transformants was then compared by flow cytometry. The instrument used was the Guava easyCyte™ HT System.
After multiple rounds of preparation and screening of hybridomas, the inventors found several antibodies with relatively ideal binding properties.

Assay [2] has as its target T1, human CLD18A2. Description: Flow cytometry binding of scFv_Fc fusion antibody to HEK293 cells stably transfected with human CLD18A2 (EC50). The conditions noted are these: scFv fused to human IgG1 Fc portion, read-out: relative binding affinity EC50 value. As to the method: Binding of anti-Claudin 18A2 scFv_Fc fusion antibody to HEK293 cells stably transfected with CLD18A2 was determined by flow cytometry. Experimental data was analyzed using GraphPad Prism and Guava easyCyte™ HT System instrument as described in Example 1 to obtain EC50 value.
Expression vectors of ScFv Fc-form of the two mutants were constructed as described in Example 2, and according to the procedure of Example 2, and the experimental data was analyzed using GraphPad Prism and Guava easyCyte™ HT System instrument to obtain EC50.
The binding activity assay was performed as described in Example 2, and experimental data was analyzed using HEK293 cells (HEK-CLD18A2) stably expressing human CLD18A2, GraphPad Prism and Guava easyCyte™ HT System instrument to obtain EC50, and the results are shown in FIG. 5.
(5) The binding activity was tested, and experimental data was analyzed using HEK293 cells (HEK-CLD18A2) stably expressing human CLD18A2, GraphPad Prism and Guava easyCyte™ HT System instrument, and the results are shown in FIG. 6.
The mutant hu8E5-2I of the humanized antibody hu8E5 was constructed as described in Example 3. Experimental data was analyzed using HEK293 cells (HEK-CLD18A2) stably expressing human CLD18A2, GraphPad Prism and Guava easyCyte™ HT System instrument, and the results are shown in FIG. 7.
(In general: A flow cytometer gives signals particle by particle.)

B1: 3E12: murine anti-CLD18A2 monoclonal antibody, VH SEQ ID NO:7, VL SEQ ID NO:5 (antibody, V domains shown)
VH: QVQLQQSGPELVKPGALVKISCKASGYTFTSYDINWVKQRPGQGLEWIGWIYPGDGSTKYNEKFKGKATLTADKSSSTAYMQLSSLTSENSAVYFCARGGYRYDEAMDYWGQGTTVTVSS
VL: QIVLTQSPAIMSASPGEKVTMTCSASSSISYMHWYQQKPGTSPKRWIYDTSKLASGVPARFSGSGSGTSYSLTISSMEAEDAATYYCHQRSSYPYTFGGGTKLEIKR
As for B1, in the assay with human CLD18A2 [1], the “binding to human CLD18A2” value is “specifically bound to human CLD18A2”.

B2: 4A11: murine anti-CLD18A2 monoclonal antibody, VH SEQ ID NO:11, VL SEQ ID NO:9 (antibody, V domains shown)
VH: QIQLVQSGPELKKPGETVKISCKASGYTFTNYGMNWVKQAPGKGLKWMGWINTNTGEPTYAEEFKGRFAFSLETSASTAYLQINNLKNEDTATYFCARFSYGNSFAYWGQGTTVTVSS
VL: DIVMTQSPSSLSVSAGEKVTMSCKSSQSLLNSGNQKNYLAWYQQKPGQPPKLLIYGASTRESGVPDRFTGSGSGTDFTLTISSVQAEDLAVYYCQNDHSYPLTFGAGTKLELKR
As for B2, the “binding to human CLD18A2” value in the assay with human CLD18A2 [1] was “specifically bound to human CLD18A2”.

B3: 8E5: murine anti-CLD18A2 monoclonal antibody, VH SEQ ID NO:15, VL SEQ ID NO:13 (antibody, V domains shown)
VH: DVQLQESGPDLVKPSQSLSLTCTVTGYSITSGYNWHWIRQFPGNKMEWMGYIHYTGSTNYNPSLRSRISITRDTSKNQFFLQLNSVTTDDTATYYCTRIYNGNSFPYWGQGTSVTVSS
VL: DIVMTQSPSSLTVTPGEKVTMTCKSSQSLFNSGNQKNYLTWYQQRPGQPPKMLIYWASTRESGVPDRFTGSGSGTDFTLTISSVQAEDLAVFYCQNAYSFPYTFGGGTKLEIKR
Turning to B3, in the assay with human CLD18A2 [2], the EC50 came to 49.2 nM. Moreover, the “binding to human CLD18A2” value in the assay with human CLD18A2 [1] is given as “specifically bound to human CLD18A2”.
